From US20250222069A1 (ACCELERON PHARMA, published 2025) come the findings set out here.

This test concerns the target T1, GDF11 (UniProt O95390 299-407).
T1 construct: also called BMP11
T1 sequence (looked up): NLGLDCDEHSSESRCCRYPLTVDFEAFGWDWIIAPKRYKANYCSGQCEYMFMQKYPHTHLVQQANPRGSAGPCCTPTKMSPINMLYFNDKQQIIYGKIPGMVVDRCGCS
Put plainly: Biacore; ligand coupled to chip, receptor flowed over (table reproduced from WO2006/012627). A general note: Surface plasmon resonance follows binding to a sensor surface in real time, without labels.

B1: Soluble ActRIIB-Fc D80I (Fc fusion, not shown: a dimerising Fc or GST)
chain: SGRGEAETRECIYYNANWELERTNQSGLERCEGEQDKRLHCYASWANSSGTIELVKKGCWLIDFNCYDRQECVATEENPQVYFCCCEGNFCNERFTHLPEA
notes: From WO2006/012627; background 64A inferred
Regarding B1, the “binding as fraction of WT binding” value is less than 0.2 fold.

B2: Soluble ActRIIB-Fc K74Y (Fc fusion, not shown: a dimerising Fc or GST)
chain: SGRGEAETRECIYYNANWELERTNQSGLERCEGEQDKRLHCYASWANSSGTIELVYKGCWLDDFNCYDRQECVATEENPQVYFCCCEGNFCNERFTHLPEA
notes: as for B1
For B2, the “binding as fraction of WT binding” value is less than 0.2 fold.

B3: Soluble ActRIIB-Fc K74F (Fc fusion, not shown: a dimerising Fc or GST)
chain: SGRGEAETRECIYYNANWELERTNQSGLERCEGEQDKRLHCYASWANSSGTIELVFKGCWLDDFNCYDRQECVATEENPQVYFCCCEGNFCNERFTHLPEA
notes: as for B1
For B3, the “binding as fraction of WT binding” value was less than 0.2 fold.

B4: Soluble ActRIIB-Fc K74I (Fc fusion, not shown: a dimerising Fc or GST)
chain: SGRGEAETRECIYYNANWELERTNQSGLERCEGEQDKRLHCYASWANSSGTIELVIKGCWLDDFNCYDRQECVATEENPQVYFCCCEGNFCNERFTHLPEA
notes: as for B1
As for B4, the “binding as fraction of WT binding” value is less than 0.2 fold.
